Measured values: patent US20180185504A1 (Regeneron, published 2018)

T1: mouse PRLR with an HA tag on HEK293 cells (mouse, UniProt Q08501 20-608)
T1 construct: whole, on cells; also called HEK293/mPRLR; rodent PRLR; not shown: HA tag
T1 sequence (looked up): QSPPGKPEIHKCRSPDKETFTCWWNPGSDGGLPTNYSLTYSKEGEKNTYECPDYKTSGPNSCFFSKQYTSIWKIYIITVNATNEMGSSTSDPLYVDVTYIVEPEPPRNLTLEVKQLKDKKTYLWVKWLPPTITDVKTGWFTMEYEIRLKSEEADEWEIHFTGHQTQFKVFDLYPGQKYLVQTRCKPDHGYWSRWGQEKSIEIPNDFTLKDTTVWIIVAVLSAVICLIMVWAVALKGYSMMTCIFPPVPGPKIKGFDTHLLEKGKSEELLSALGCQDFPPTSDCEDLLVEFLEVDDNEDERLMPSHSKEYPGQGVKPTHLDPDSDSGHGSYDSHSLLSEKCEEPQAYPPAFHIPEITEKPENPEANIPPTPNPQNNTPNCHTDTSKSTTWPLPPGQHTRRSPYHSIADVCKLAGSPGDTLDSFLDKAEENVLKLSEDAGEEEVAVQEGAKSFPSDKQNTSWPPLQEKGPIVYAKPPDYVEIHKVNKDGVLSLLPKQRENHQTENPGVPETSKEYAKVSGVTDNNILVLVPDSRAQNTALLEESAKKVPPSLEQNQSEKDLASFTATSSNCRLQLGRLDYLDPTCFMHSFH

T2: human prolactin receptor (PRLR) on cells (human, UniProt P16471 25-622)
T2 sequence: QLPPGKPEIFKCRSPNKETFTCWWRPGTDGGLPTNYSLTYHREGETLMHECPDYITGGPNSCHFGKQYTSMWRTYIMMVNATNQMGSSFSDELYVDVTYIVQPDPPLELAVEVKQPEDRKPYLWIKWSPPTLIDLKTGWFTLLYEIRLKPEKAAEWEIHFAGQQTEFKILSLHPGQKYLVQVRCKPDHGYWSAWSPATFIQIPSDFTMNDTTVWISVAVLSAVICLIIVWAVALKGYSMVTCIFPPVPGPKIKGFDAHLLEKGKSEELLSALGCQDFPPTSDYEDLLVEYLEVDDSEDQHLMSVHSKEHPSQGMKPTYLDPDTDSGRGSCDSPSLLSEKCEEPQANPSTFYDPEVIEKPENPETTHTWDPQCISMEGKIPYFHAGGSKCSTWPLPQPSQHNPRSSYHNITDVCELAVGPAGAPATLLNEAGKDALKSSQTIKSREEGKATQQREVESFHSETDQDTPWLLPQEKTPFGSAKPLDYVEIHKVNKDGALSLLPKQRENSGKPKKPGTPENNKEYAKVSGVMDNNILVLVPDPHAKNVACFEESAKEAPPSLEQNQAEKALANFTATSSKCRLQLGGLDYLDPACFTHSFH


Key:
[1] = molecular target: T1, mouse PRLR with an HA tag on HEK293 …; test: FACS on HEK293/mPRLR cells
[2] = molecular target: T2, human prolactin receptor (PRLR) on cells; test: cell-based or functional assay

Row | binding result [1] | IC50, block of STAT5 reporter activation by 5 nM PRL in HEK293/hPRLR/STAT5-Luc cells [2] [nM] | Binder
1 | no binding |  | H1H6783P (antibody, human IgG1, V domains shown) VH: QVQLQQSGPGLVKPSQTLSLTCAISGDSVSSNTFAWNWIRQSPSRGLEWLGRTYYRSKWYIDYAESVKSRITITPDTSKNQFSLQLNSVTPEDTALYYCAGGYTYAPRGAFDIWGQGTMVTVSS VL: not shown
2 | no binding |  | H1H6781P (antibody, human IgG1, V domains shown) VH: EVQLVESGGDLVQPGESLRLSCTASGFTFNSYEMNWVRQAPGKGLEWVSYISSSGGTKYYVDSVKGRFTISRDNAKKSLYLQMNSLRADDTALYYCARLNGVDVFDIWGQGTMVTVSS VL: DIQMTQSPSSLSASVGDRVTITCRASQDIFNYLAWFQQKPGKVPELLISAASTLQSGVPSRFSGSGSGTYFTLTISSLQPEDIATYYCQRYNSAPLTFGGGTKVEIK
3 | no binding |  | H1H6785P (antibody, human IgG1, V domains shown) VH: EVQLVESGGGLVQPGGSLRLSCAASGFTFSSYEMNWVRQAPGKGLEWISYISSRGGTIYYADSIKGRFTIYRDNARNSLYLQMNSLRAEDTAIYYCARLSGVDIFDIWGQGTMVTVSS VL: DIQMTQSPSSLSASVGDRVTITCRASQGISNYLAWYQQKPGKVPKLLIYFASTLQSGVPSRFSGGGSGTDFTLTISSLQPEDVATYYCQRYNSAPLTFGGGTKVEIK

The remaining lines, values behind:

Row | Binder | binding result [1] | IC50, block of STAT5 reporter activation by 5 nM PRL in HEK293/hPRLR/STAT5-Luc cells [2] [nM]
4 | H1H6790P (antibody, human IgG1, V domains shown) VH: EVQLVESGGGLVQPGGSLRLSCAASGFTFSSYAMTWVRQAPGKGLEWVSAITGSVGNTYYADSVKGRFTISRDNSKNTLYLQMNSLGAEDTAEYYCAKGAGMTTNWYLDLWGRGTLVTVSS VL: DIVMTQSPDSLAVSLGARATINCKSSQSVLYSSNNQNYLTWYQQKPGQPPKLLIKWASTRESGVPDRFSGSGSGTDFTLTISSLQAEDVAVYYCQQYASSPYTFGQGTKLEIK | no binding | 
5 | H1H6762P (antibody, human IgG1, V domains shown) VH: QVQLVESGGGVVQPGRSLRLSCAASGFTFSHYGMVWVRQPPGKGLEWVALISFDGTTKYYADSVKGRFTISRDNSKNTLYLQMNSLRAEDTAVYFCVGAIAAAAFDLWGRGTLVTVSS VL: EIVMTQSPATLSVSPGERATLSCRASQSVSSDLAWYQQKPGQAPRLLIYSASARATGIPARFTGSGSGTDFTLTISSLQSEDFAVYYCQQYNNWPMYTFGQGTKLEIK | no binding | 0.022
